Measurements taken from patent US20180104312A1 (Eli Lilly, published 2018).
Read-outs that look alike come from different tables or passages of the source.

Columns and labels:
[1] = target: T1, human Glucagon-Like Peptide-1 receptor (human, UniProt P43220 24-463); experiment: cell-based or functional assay
Target sequence in this assay (P43220 24-463): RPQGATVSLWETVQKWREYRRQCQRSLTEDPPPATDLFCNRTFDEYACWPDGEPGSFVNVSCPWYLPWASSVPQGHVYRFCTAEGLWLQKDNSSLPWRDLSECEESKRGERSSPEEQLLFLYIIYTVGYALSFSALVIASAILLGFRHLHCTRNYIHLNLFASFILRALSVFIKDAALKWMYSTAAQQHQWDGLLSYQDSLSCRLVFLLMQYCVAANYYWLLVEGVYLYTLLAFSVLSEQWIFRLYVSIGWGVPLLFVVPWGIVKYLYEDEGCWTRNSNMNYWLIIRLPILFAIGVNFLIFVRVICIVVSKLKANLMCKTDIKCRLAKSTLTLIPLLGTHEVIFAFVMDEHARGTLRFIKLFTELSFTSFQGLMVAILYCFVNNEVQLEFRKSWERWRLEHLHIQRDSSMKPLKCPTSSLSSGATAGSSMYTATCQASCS

[2] = target: T2, recombinant human glucagon receptor (human, UniProt P47871 26-477); experiment: cell-based or functional assay
[3] = target: T3, human glucose-dependent insulinotropic polypeptide receptor (human) (UniProt P48546); experiment: cell-based or functional assay
T3 sequence (looked up): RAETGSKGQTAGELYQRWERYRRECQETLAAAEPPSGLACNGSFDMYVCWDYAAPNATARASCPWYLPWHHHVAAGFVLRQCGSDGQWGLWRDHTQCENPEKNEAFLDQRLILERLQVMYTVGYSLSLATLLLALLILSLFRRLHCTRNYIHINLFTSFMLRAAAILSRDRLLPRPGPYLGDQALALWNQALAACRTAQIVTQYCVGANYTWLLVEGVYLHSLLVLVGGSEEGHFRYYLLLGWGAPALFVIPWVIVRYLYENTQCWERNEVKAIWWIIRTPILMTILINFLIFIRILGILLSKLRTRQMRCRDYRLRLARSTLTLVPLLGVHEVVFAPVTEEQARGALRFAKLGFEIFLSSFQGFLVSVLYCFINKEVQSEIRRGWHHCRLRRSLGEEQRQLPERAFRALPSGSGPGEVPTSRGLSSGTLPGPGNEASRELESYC

[4] = target: T1, human Glucagon-Like Peptide-1 receptor; experiment: cell-based or functional assay; remark: listed apart in the source
[5] = target: T4, human glucose-dependent insulinotropic polypeptide receptor (human, UniProt P48546 22-466); experiment: cell-based or functional assay
T4 sequence (looked up): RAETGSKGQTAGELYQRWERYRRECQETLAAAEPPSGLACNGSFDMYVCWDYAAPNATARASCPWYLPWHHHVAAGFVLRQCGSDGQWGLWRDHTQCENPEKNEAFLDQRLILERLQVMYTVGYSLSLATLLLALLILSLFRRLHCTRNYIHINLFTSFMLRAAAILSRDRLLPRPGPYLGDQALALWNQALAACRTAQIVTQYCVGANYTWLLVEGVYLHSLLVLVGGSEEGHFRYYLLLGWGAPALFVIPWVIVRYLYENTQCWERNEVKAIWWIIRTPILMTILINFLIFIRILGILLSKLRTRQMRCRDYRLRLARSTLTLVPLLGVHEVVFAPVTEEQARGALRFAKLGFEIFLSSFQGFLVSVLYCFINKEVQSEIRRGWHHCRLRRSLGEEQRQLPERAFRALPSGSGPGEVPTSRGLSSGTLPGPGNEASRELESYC

[6] = target: T2, recombinant human glucagon receptor; experiment: cell-based or functional assay; remark: listed apart in the source
[7] = target: T2, recombinant human glucagon receptor; experiment: I-125-Gcg competition SPA, membranes of 293HEK cells expressing hGcg-R
Protocol: (§1) The specific activity is 2200 Ci/mmol. KD determination is performed by homologous competition or saturation binding analysis.
(§2) The receptor binding assay is carried out using a Scintillation Proximity Assay (SPA) format with wheat germ agglutinin (WGA) beads (Perkin Elmer). The binding buffer contains 25 mM 4-(2-hydroxyethyl)-1-piperazineethanesulfonic acid (HEPES), pH 7.4, 2.5 mM CaCl₂, 1 mM MgCl₂, 0.1% (w/v) bacitracin (Affymetrix), 0.003% (w/v) Polyoxyethylenesorbitan monolaurate (TWEEN®-20) and Roche Complete™ Protease Inhibitors without EDTA.

mouse glucagon receptor = target: T5, mouse glucagon receptor (mouse, UniProt Q61606 27-485); experiment: I-125-Gcg competition SPA, membranes of 293HEK cells expressing mGcg-R
T5 construct: whole, on cells; Used as membranes of a clonal 293HEK line; also called mGcg-R; mGcgR
Protocol: as §1, §2

rat glucagon receptor = target: T6, rat glucagon receptor (rat, UniProt P30082 27-485); experiment: I-125-Gcg competition SPA, membranes of 293HEK cells expressing rGcg-R
T6 construct: whole, on cells; Used as membranes of transiently transfected 293HEK cells; also called rGcg-R; rat Gcg-R
Protocol: as §1, §2

[8] = target: T1, human Glucagon-Like Peptide-1 receptor; experiment: cell-based or functional assay; remark: listed apart in the source
[9] = target: T4, human glucose-dependent insulinotropic …; experiment: cell-based or functional assay; remark: listed apart in the source
[10] = target: T2, recombinant human glucagon receptor; experiment: cell-based or functional assay; remark: listed apart in the source
[11] = target: T1, human Glucagon-Like Peptide-1 receptor; experiment: cell-based or functional assay; remark: listed apart in the source
[12] = target: T4, human glucose-dependent insulinotropic …; experiment: cell-based or functional assay; remark: listed apart in the source
[13] = target: T2, recombinant human glucagon receptor; experiment: cell-based or functional assay; remark: listed apart in the source

T2 sequence (P47871 26-477): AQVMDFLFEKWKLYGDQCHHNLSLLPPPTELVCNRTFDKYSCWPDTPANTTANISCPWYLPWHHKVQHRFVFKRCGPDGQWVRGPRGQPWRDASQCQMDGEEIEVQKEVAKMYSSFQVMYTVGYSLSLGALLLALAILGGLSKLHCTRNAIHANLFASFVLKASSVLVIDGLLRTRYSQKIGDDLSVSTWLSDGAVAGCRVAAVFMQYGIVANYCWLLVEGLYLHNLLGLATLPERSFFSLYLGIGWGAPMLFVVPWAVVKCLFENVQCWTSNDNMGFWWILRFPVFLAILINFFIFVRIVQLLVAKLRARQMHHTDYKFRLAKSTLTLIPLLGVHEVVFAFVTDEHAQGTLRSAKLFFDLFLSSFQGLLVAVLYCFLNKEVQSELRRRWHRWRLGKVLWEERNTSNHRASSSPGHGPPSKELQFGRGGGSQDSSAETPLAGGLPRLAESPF
T6 sequence (P30082 27-485): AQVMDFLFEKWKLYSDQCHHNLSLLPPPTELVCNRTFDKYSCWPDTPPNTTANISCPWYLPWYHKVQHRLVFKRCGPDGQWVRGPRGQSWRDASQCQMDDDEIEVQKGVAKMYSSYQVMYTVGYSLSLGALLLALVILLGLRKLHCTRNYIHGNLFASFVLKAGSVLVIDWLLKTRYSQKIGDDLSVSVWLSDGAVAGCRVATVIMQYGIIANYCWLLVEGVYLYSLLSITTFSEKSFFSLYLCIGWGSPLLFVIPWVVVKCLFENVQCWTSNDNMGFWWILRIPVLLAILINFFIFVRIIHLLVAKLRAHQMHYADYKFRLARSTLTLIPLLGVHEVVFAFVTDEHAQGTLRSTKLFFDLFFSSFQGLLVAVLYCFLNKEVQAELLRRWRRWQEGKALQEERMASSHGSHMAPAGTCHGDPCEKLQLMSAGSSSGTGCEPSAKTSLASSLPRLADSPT
T5 sequence (Q61606 27-485): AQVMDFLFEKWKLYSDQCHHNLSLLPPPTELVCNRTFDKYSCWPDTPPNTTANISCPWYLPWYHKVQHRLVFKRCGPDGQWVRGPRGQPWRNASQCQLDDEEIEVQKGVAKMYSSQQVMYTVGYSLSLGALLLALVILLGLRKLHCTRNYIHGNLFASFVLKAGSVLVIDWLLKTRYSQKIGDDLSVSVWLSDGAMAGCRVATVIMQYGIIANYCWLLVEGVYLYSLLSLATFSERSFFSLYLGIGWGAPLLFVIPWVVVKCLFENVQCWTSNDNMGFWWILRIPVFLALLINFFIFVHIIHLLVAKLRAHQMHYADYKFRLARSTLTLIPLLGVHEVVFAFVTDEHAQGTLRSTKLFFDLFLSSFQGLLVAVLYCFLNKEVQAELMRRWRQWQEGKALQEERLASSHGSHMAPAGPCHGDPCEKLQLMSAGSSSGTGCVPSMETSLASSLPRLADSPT

dulaglutide (Fc fusion)
EC50, cAMP, GLP-1 Receptor Assay; sample C6.5-4 C.-4 wk [1]: 0.37 nM | EC50, cAMP, GLP-1 Receptor Assay; sample C6.5-40 C.-4 wk [1]: 0.31 nM | EC50, cAMP, GLP-1 Receptor Assay; sample C6.5MT-4 C.-4 wk [1]: 0.4 nM | EC50, cAMP, GLP-1 Receptor Assay; sample C6.5MT-40 C.-4 wk [1]: 0.29 nM | EC50, cAMP, Gcg Receptor Assay; sample C6.5-4 C.-4 wk [2]: 51.9 nM | EC50, cAMP, Gcg Receptor Assay; sample C6.5-40 C.-4 wk [2]: > 100 nM | EC50, cAMP, Gcg Receptor Assay; sample C6.5MT-4 C.-4 wk [2]: 54 nM | EC50, cAMP, Gcg Receptor Assay; sample C6.5MT-40 C.-4 wk [2]: > 100 nM | EC50, cAMP, GIP Receptor Assay; sample C6.5-4 C.-4 wk [3]: > 100 nM | EC50, cAMP, GIP Receptor Assay; sample C6.5-40 C.-4 wk [3]: > 100 nM | EC50, cAMP, GIP Receptor Assay; sample C6.5MT-4 C.-4 wk [3]: > 100 nM | EC50, cAMP, GIP Receptor Assay; sample C6.5MT-40 C.-4 wk [3]: > 100 nM

B1: Example 6 (peptide)
peptide: YXQGTFTSDYSKYLDXKKAXEFVAWLLEE
modifications: Aib at positions 2 and 16; K20 epsilon-amino group conjugated with ([2-(2-Amino-ethoxy)-ethoxy]-acetyl)2-(γGlu)1-CO-(CH2)16-CO2H; C-terminal acid
EC50, intracellular cAMP (HTRF) [4]: > 100 nM | EC50, intracellular cAMP (HTRF) [5]: > 500 nM | EC50, intracellular cAMP (HTRF) [6]: 0.00413 nM | Ki [7]: 0.316 nM | Ki (mouse glucagon receptor): 0.123 nM | Ki (rat glucagon receptor): 0.98 nM

B2: Example 1 (peptide)
peptide: YXQGTFTSDYSKYLDXKKAXEFVEWLLETGPSSGAPPPS
modifications: Aib at positions 2 and 16; K20 epsilon-amino group conjugated with ([2-(2-Amino-ethoxy)-ethoxy]-acetyl)2-(γGlu)2-CO-(CH2)16-CO2H; C-terminal primary amide
EC50, intracellular cAMP (HTRF) [4]: 73.9 nM | EC50, intracellular cAMP (HTRF) [5]: > 500 nM | EC50, intracellular cAMP (HTRF) [6]: 0.00436 nM | EC50, cAMP, GLP-1 Receptor Assay; sample T7-4 C.-4 wk [8]: > 100 nM | EC50, cAMP, GLP-1 Receptor Assay; sample T7-40 C.-4 wk [8]: 57.5 nM | EC50, cAMP, GLP-1 Receptor Assay; sample T7m-4 C.-4 wk [8]: 43.8 nM | EC50, cAMP, GLP-1 Receptor Assay; sample T7m-40 C.-4 wk [8]: 49.7 nM | EC50, cAMP, GIP Receptor Assay; sample T7-4 C.-4 wk [9]: > 100 nM | EC50, cAMP, GIP Receptor Assay; sample T7-40 C.-4 wk [9]: > 100 nM | EC50, cAMP, GIP Receptor Assay; sample T7m-4 C.-4 wk [9]: > 100 nM | EC50, cAMP, GIP Receptor Assay; sample T7m-40 C.-4 wk [9]: > 100 nM | EC50, cAMP, Gcg Receptor Assay; sample T7-4 C.-4 wk [10]: 0.0203 nM | EC50, cAMP, Gcg Receptor Assay; sample T7-40 C.-4 wk [10]: 0.0217 nM | EC50, cAMP, Gcg Receptor Assay; sample T7m-4 C.-4 wk [10]: 0.023 nM | EC50, cAMP, Gcg Receptor Assay; sample T7m-40 C.-4 wk [10]: 0.0194 nM | EC50, cAMP, GLP-1 Receptor Assay; sample C6.5-4 C.-4 wk [11]: 41.6 nM | EC50, cAMP, GLP-1 Receptor Assay; sample C6.5-40 C.-4 wk [11]: 54.6 nM | EC50, cAMP, GLP-1 Receptor Assay; sample C6.5MT-4 C.-4 wk [11]: 55.6 nM | EC50, cAMP, GLP-1 Receptor Assay; sample C6.5MT-40 C.-4 wk [11]: 47.9 nM | EC50, cAMP, GIP Receptor Assay; sample C6.5-4 C.-4 wk [12]: > 100 nM | EC50, cAMP, GIP Receptor Assay; sample C6.5-40 C.-4 wk [12]: > 100 nM | EC50, cAMP, GIP Receptor Assay; sample C6.5MT-4 C.-4 wk [12]: > 100 nM | EC50, cAMP, GIP Receptor Assay; sample C6.5MT-40 C.-4 wk [12]: > 100 nM | EC50, cAMP, Gcg Receptor Assay; sample C6.5-4 C.-4 wk [13]: 0.0178 nM | EC50, cAMP, Gcg Receptor Assay; sample C6.5-40 C.-4 wk [13]: 0.0243 nM | EC50, cAMP, Gcg Receptor Assay; sample C6.5MT-4 C.-4 wk [13]: 0.0188 nM | EC50, cAMP, Gcg Receptor Assay; sample C6.5MT-40 C.-4 wk [13]: 0.0146 nM | Ki [7]: 2.04 nM | Ki (mouse glucagon receptor): 1.92 nM | Ki (rat glucagon receptor): 9.78 nM
